In patent US7947873 one finds activity (% alpha-tocopherol in R1 seed) and activity (% alpha-tocopherol in T2 seed) data, which are given here for twelve sequences.

What all share (test): cell_activity
Data set [1] relates to CGMT10-C1 ZFP-TF (Artificial). To be noted: control 39.9; napin promoter, transgenic canola.
Data set [2] relates to AGMT10-C1 ZFP-TF (Artificial). To be noted: control 1.00; napin promoter; effective activator in leaf.
Data set [3] relates to CGMT4-C1 ZFP-TF (Artificial). To be noted: control 39.9; napin promoter, transgenic canola.
Data set [4] has as its system AGMT7-C1 ZFP-TF (Artificial). To be noted: control 1.00; napin promoter; 35S promoter 1.69; 5-fold GMT mRNA increase in leaf protoplasts (p271).
For data set [5], the system named is AGMT6-C1 ZFP-TF (Artificial). To be noted: control 1.00; napin promoter, transgenic Arabidopsis.
Data set [6] relates to AGMT9-C1 ZFP-TF (Artificial). The note with it: control 1.00; napin promoter, transgenic Arabidopsis.
The subject of data set [7] is CGMT12-C1 ZFP-TF (Artificial). To be noted: control 39.9; napin promoter, transgenic canola.
Data set [8] deals with AGMT5-C1 ZFP-TF (Artificial). The note with it: control 1.00; napin promoter, transgenic Arabidopsis.
Data set [9] has as its system CGMT3-C1 ZFP-TF (Artificial). To be noted: control 39.9; napin promoter, transgenic canola.
Data set [10] relates to AGMT8-C1 ZFP-TF (Artificial). The note with it: control 1.00; napin promoter; effective activator in leaf, not in seed per p274.
For data set [11], the system named is CGMT6-C1 ZFP-TF (Artificial). To be noted: control 39.9; napin promoter, transgenic canola.
Data set [12] relates to CGMT9-C1 ZFP-TF (Artificial). The note with it: control 39.9; napin promoter, transgenic canola.

Take “GTAGAGGAC (double strand) [CGMT10 target]”: the activity (% alpha-tocopherol in R1 seed) in data set [1] turned out to be 54.2.
The sequence “GAGGAGGAGG (double strand) [ZFP E / AGMT10 target]” registered an activity (% alpha-tocopherol in T2 seed) in [2] of 2.86.
With “GAGGAAGAT (double strand) [CGMT4 target]”, the activity (% alpha-tocopherol in R1 seed) in [3] worked out at 51.9.
Take “GGGGAAAGGG (double strand) [ZFP B / AGMT7 target]”: the activity (% alpha-tocopherol in T2 seed) in data set [4] came out at 5.95.
The sequence “TGGGTAGTC (double strand) [AGMT6 target]” had an activity (% alpha-tocopherol in T2 seed) in data set [5] of 1.74.
Consider “GAGGAGGATG (double strand) [ZFP D / AGMT9 target]”, for which the activity (% alpha-tocopherol in T2 seed) in data set [6] is 2.31.
In data set [7], “GAGGTTGGC (double strand) [CGMT12 target]” showed an activity (% alpha-tocopherol in R1 seed) of 64.5.
In data set [8], “GAGGAAGGGG (double strand) [ZFP A / AGMT5 target]” yielded an activity (% alpha-tocopherol in T2 seed) of 4.45.
For the sequence “GATGCTGGT (double strand) [CGMT3 target]”, the activity (% alpha-tocopherol in R1 seed) in data set [9] was found to be 46.6.
The sequence “GAAGAGGGTG (double strand) [ZFP C / AGMT8 target]” had an activity (% alpha-tocopherol in T2 seed) in data set [10] of 1.57.
For “GAGGTTGGA (double strand) [CGMT6 target]”, in data set [11], the activity (% alpha-tocopherol in R1 seed) came out at 59.6.
As to “TAGTTGGAA (double strand) [CGMT9 target]”, the activity (% alpha-tocopherol in R1 seed) in data set [12] worked out at 46.2.
